These are literature values, as cited in article PMC5012295.

In the series the target is Complement C4b (Homo sapiens) (UniProt P0C0L4). The series is described as follows: AlphaScreen. (In general: Alpha assays give light when donor and acceptor beads are brought close together.)
Sequence of UniProt P0C0L4 (P0C0L4 20-675, chain 1 of 2): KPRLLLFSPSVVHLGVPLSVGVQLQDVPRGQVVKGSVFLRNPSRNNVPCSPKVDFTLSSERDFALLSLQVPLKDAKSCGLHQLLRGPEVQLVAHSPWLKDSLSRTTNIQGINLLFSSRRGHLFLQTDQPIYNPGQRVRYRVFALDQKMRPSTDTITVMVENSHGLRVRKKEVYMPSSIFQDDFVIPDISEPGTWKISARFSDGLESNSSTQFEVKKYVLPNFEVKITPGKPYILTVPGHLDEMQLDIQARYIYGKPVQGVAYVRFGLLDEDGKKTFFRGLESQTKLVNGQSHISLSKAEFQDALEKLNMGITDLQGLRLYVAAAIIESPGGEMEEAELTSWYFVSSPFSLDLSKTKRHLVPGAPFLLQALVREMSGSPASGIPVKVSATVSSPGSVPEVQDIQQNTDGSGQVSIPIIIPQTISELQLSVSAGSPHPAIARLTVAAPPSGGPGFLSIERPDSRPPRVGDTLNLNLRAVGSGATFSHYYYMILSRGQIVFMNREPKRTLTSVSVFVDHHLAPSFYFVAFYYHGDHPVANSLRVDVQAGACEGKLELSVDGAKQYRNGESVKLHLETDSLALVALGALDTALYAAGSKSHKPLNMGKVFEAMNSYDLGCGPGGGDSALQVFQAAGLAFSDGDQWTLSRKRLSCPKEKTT
Sequence of UniProt P0C0L4 (P0C0L4 20-675, chain 2 of 2): as the sequence (P0C0L4 20-675, chain 1 of 2) above

A word on the Kd: it is the constant that tells how readily two partners part at equilibrium. Consider Eap (from UniProt Q99QS1), for which the Kd is 185 nM. For Eap34 domains 3-4 (from UniProt Q99QS1), the Kd was 525 nM.
